Source: patent US20140178561

Columns and labels:
Assay in all cases: cell_activity
Conditions in all cases: pair value
[1] = system: VInv_T03 TALE-nuclease right monomer (synthetic construct)
[2] = system: VInv_T02 TALE-nuclease right monomer (synthetic construct)
[3] = system: VInv_T01 TALE-nuclease right monomer (synthetic construct)
[4] = system: VInv_T03 TALE-nuclease left monomer (synthetic construct)
[5] = system: VInv_T01 TALE-nuclease left monomer (synthetic construct)
[6] = system: VInv_T02 TALE-nuclease left monomer (synthetic construct)
[7] = S. tuberosum protoplasts, text p49 gives range up to 9.5%
[8] = yeast beta-galactosidase assay 37 C, 0.82 at 30 C
[9] = S. tuberosum protoplasts, endogenous locus
[10] = yeast beta-galactosidase assay 37 C, 0.89 at 30 C
[11] = yeast beta-galactosidase assay 37 C, 0.95 at 30 C

CCGGACTTGCAGAGTAA (double strand) [VInv_T3 right half-site]
activity [1, 7]: 9.9 % NHEJ
activity (relative to I-SceI) [1, 8]: 0.96

CTTCTTTCCGATCCTCA (double strand) [VInv_T2 right half-site]
activity [2, 9]: 9.5 % NHEJ
activity (relative to I-SceI) [2, 10]: 0.92

GAAGTCCCTTAAAATCA (double strand) [VInv_T1 right half-site]
activity [3, 9]: 3.6 % NHEJ
activity (relative to I-SceI) [3, 11]: 0.94

TAGCCTTCTTTCCGATC (double strand) [VInv_T3 left half-site]
activity [4, 7]: 9.9 % NHEJ
activity (relative to I-SceI) [4, 8]: 0.96

TTCCTCCCGGATCAACC (double strand) [VInv_T1 left half-site]
activity [5, 9]: 3.6 % NHEJ
activity (relative to I-SceI) [5, 11]: 0.94

TTCCTCTCCTCTTTCCT (double strand) [VInv_T2 left half-site]
activity [6, 9]: 9.5 % NHEJ
activity (relative to I-SceI) [6, 10]: 0.92
